{
  "source": "paper PMC2120337",
  "binders": {"B1": {"name": "bacterially expressed alpha0-1(R22S) (domain or fragment)", "chain": "MENFTPKEVKILETVEDIQERSEQVLSRYNDFKIETRQKREKLEDSRRFQYFKRDADELESWIHEKLQAASEESYRDPTNLQAKIQKHQAFEAEVSAHSNAIVSLDNTGQEMINQQHFASESIQVRLDELHKLWELLLSRLAEKGLKLQQ"}},
  "biological_target": "bacterially expressed beta18 (Drosophila)",
  "sequence (Q00963 whole entry)": "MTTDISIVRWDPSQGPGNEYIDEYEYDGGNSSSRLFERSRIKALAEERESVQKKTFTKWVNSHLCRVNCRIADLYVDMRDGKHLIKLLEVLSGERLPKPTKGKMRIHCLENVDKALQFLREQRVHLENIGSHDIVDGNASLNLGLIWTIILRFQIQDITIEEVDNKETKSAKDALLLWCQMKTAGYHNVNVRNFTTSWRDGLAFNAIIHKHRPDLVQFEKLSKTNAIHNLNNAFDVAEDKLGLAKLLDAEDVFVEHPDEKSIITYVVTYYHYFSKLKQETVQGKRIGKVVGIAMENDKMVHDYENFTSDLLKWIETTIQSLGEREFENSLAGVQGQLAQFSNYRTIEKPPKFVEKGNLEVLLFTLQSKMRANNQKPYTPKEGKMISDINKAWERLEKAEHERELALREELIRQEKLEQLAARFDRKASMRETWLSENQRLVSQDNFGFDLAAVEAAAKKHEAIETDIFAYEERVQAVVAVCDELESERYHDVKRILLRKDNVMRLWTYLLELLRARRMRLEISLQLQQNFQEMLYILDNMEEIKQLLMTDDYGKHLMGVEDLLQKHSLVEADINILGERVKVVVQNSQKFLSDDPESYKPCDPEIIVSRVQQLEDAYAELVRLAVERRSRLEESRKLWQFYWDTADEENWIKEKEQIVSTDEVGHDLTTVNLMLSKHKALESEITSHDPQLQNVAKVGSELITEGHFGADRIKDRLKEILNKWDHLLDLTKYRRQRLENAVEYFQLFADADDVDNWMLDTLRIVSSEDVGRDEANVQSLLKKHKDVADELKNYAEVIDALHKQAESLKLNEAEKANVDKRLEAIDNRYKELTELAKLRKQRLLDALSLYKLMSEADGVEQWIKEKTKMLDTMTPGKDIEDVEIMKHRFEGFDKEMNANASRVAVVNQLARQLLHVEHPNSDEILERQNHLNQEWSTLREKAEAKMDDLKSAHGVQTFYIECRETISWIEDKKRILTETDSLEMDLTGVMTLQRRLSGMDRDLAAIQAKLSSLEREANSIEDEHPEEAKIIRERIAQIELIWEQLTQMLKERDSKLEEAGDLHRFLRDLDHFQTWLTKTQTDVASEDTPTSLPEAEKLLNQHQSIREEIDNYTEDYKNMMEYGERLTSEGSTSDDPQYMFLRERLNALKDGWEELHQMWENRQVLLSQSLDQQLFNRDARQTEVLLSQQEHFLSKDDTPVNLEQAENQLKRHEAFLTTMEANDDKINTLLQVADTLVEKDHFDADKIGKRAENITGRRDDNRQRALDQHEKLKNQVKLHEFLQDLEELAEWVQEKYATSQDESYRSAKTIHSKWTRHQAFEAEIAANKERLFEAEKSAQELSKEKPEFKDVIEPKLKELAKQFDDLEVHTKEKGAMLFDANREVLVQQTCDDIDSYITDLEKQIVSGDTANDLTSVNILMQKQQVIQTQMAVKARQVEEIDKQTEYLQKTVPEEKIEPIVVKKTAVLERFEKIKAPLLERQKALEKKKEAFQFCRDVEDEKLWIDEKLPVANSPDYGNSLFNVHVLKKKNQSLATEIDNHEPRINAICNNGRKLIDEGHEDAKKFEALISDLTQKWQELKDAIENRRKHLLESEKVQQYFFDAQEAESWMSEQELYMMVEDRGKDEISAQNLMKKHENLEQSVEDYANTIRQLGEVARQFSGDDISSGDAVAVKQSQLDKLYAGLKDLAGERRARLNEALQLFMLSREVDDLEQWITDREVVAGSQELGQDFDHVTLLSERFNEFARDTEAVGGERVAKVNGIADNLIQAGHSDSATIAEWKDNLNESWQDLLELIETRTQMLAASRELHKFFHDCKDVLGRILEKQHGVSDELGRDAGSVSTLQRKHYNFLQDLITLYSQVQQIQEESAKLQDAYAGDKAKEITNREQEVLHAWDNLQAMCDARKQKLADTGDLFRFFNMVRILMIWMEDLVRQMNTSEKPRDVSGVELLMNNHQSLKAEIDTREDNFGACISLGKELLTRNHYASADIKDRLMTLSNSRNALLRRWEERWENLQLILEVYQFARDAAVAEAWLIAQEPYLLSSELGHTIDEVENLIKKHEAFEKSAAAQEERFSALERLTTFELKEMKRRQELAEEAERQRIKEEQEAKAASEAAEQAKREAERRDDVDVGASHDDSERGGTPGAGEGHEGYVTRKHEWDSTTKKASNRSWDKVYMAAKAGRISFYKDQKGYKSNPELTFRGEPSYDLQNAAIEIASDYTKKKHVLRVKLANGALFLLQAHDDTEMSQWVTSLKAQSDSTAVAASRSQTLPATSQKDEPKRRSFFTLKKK",
  "assay": "chymotrypsin protection",
  "data": [
    {"binder": "B1", "values": [
      {"measurement": "percent intact (chymotrypsin protection, beta18 present)", "value": 61.2, "unit": "%"}
    ]}
  ]
}
